The source of these data is patent publication US12433934B2, “Methods and compositions for preventing and treating atherosclerosis and related diseases” (Shanghai Puyou Biomedical Co., Ltd., priority 2018, dated 2025).

“Also recorded” adds a separate entry of the source.

One series relates to LDL. In words: Co-incubation with LDL, SDS-PAGE separation, Coomassie brilliant blue staining. Format: binding. The conditions noted are these: 12 h. The method, then:
(§1) Experimental materials: sDSS1 protein, sDSS1 mutant protein 1 (sDSS1-M1, SEQ ID NO: 15), sDSS1 mutant protein 2 (sDSS1-M2, SEQ ID NO: 16), oxidized low density lipoprotein (oxLDL) (Solarbio, Article No.: H7980); low density lipoprotein (LDL) (Solarbio, Article No.: H7960).
(§2) Experimental method: 2 μg of oxLDL or LDL was mixed with 6 μg of sDSS1 protein or 10 μg of sDSS1 protein in a 1.5 ml EP tube in the presence of 20 mM sodium acetate/acetic acid buffer (pH 4.5) or 20 mM phosphate buffer (pH 7.2) respectively, and incubated at 37° C. for 12 h. A loading buffer was added in the incubated product and evenly mixed, and the obtained mixture was denatured at 100° C. for 10 min to prepare a loading sample. The resulting sample was subjected to electrophoretic separation via polyacrylamide gel electrophoresis (SDS-PAGE). After separation, the SDS-PAGE gel was stained with Coomassie brilliant blue to display protein strips. The sDSS1-M1 or sDSS1-M2 protein was respectively mixed and incubated with oxLDL, and treated in the same way. 15 μL of the sample was used for SDS-PAGE electrophoresis separation.

Series [1] is described as follows: Toxic reaction in animal experiments. Format: in vivo. From the text: The sDSS1 protein used in the following examples is produced and quality controlled by the company itself. Upon detection, the purity of the protein is more than 95%, and endotoxins (the content of endotoxins is less than 3 EU/mg protein) and other impurity residues meet the standards.
The test system of another series is ApoE−/− mice. In words: Plasma oxLDL and LDL levels (ELISA) in ApoE−/− mice after 7 days of administration. In kind it is in vivo. An excerpt:
ApoE−/− mice were divided into two groups, the control group and the sDSS1 protein administration group. […] At the end of the administration, the plasma levels of oxLDL and LDL in mice were detected.
Experimental animal: ApoE−/− mice, 8-10 weeks old, male, were purchased from Nanjing Biomedical Research Institute of Nanjing University. The animals were housed in an animal room for one week before the experiment.
Experimental materials: sDSS1 protein, oxLDL ELISA kit (Wuhan Elabscience Biotechnology Co., Ltd., Article No.: E-EL-M0066c), LDL ELISA kit (Wuhan Elabscience Biotechnology Co., Ltd., product No.: E-EL-M1363c)
Experimental method: the ApoE−/− mice were randomly divided into two groups, a control group and a sDSS1 protein group. For 7 days, 200 μl of normal saline was intraperitoneally injected in control group once a day, and 10 mg/kg of the sDSS1 protein was intraperitoneally injected in sDSS1 protein group once a day. After 7 days of administration, the bloods of mice were collected, and plasma was separated with EDTA-Na as an anticoagulant. The plasma oxLDL level was measured by using the oxLDL ELISA kit, and the plasma LDL level was measured by the LDL ELISA kit.
100 μl of oxLDL standards or samples were added in each well, and incubated for 90 min at 37° C.; the liquid in the well was discarded, 100 μl of biotinylated oxLDL antibody working liquid was added, and incubated at 37° C. for 60 min; washing 3 times; 100 μl of enzyme binding working solution was added, and incubated at 37° C. for 30 min; washing 5 times; 90 μl of substrate solution was added, and incubated at 37° C. for 15 min; 50 μl of termination solution was added, and the OD value was immediately measured at 450 nm wavelength; a standard curve was established with standard products, and the oxLDL level of each sample was calculated according to the standard curve.
100 μl of LDL standards or samples were added into each well, and incubated for 90 min at 37° C.; the liquid in the well was discarded, 100 μl of biotinylated LDL antibody working liquid was added, and incubated at 37° C. for 60 min; washing 3 times; 100 μl of enzyme binding working liquid was added, and incubated at 37° C. for 30 min; washing 5 times; 90 μl of substrate solution was added, and incubated at 37° C. for 15 min; 50 μl of termination solution was added, and the OD value was immediately measured at 450 nm wavelength; a standard curve was established by using standard products, and the LDL level of each sample was calculated according to the standard curve. The oxLDL/LDL ratio=oxLDL concentration (ng/ml)÷LDL concentration (ng/ml) 5.2 Experimental Results
(In general: In an ELISA, binding on a coated surface is turned into a signal by an enzyme label.)

A further series deals with T1, oxLDL (Homo sapiens, UniProt P04114).
T1 construct: purchased Solarbio H7980
In words: Co-incubation with oxLDL, SDS-PAGE separation, Coomassie brilliant blue staining. In kind it is binding. The method, then: as §1, §2

The test system of series [2] is macrophages differentiated from monocyte THP-1. In words: Phagocytosis of DiL-oxLDL by macrophages differentiated from THP-1 (fluorescence microscope, flow cytometry). Format: cell-based, human. The note with it: 10 μg/ml DiL-oxLDL, 5 h. The procedure:
Experimental materials: sDSS1 protein, DiL-oxLDL, phorbol ester (PMA, Sigma Aldrich, Article No.: P1585), human monocyte THP-1 (Cell Bank of Typical Culture Preservation Committee of Chinese Academy of Sciences, Catalog No.: SCSP-567).
Experimental method: THP-1 cells were inoculated into a 6-well plate with 250000 cells per well, and the culture solution contained 100 ng/mL PMA. After being activated by PMA for 48 h, the cells were cultured in a fresh culture medium for 4 days to facilitate cell adhesion. The old culture medium was discarded. 1.5 ml 10 μg/ml DiL-oxLDL was added, or 1.5 ml 10 μg/ml DiL-oxLDL was added together with 2 μg/ml, 5 μg/ml, 10 μg/ml, or 20 μg/ml of the sDSS1 protein. After incubation for 5 h in an incubator, the fluorescence signal in the cells was observed by a fluorescence microscope. The cells were digested by trypsin to form single cells for detecting fluorescence intensity via flow cytometry.
A general note: A flow cytometer gives signals particle by particle.

T1 sequence (P04114 28-4563): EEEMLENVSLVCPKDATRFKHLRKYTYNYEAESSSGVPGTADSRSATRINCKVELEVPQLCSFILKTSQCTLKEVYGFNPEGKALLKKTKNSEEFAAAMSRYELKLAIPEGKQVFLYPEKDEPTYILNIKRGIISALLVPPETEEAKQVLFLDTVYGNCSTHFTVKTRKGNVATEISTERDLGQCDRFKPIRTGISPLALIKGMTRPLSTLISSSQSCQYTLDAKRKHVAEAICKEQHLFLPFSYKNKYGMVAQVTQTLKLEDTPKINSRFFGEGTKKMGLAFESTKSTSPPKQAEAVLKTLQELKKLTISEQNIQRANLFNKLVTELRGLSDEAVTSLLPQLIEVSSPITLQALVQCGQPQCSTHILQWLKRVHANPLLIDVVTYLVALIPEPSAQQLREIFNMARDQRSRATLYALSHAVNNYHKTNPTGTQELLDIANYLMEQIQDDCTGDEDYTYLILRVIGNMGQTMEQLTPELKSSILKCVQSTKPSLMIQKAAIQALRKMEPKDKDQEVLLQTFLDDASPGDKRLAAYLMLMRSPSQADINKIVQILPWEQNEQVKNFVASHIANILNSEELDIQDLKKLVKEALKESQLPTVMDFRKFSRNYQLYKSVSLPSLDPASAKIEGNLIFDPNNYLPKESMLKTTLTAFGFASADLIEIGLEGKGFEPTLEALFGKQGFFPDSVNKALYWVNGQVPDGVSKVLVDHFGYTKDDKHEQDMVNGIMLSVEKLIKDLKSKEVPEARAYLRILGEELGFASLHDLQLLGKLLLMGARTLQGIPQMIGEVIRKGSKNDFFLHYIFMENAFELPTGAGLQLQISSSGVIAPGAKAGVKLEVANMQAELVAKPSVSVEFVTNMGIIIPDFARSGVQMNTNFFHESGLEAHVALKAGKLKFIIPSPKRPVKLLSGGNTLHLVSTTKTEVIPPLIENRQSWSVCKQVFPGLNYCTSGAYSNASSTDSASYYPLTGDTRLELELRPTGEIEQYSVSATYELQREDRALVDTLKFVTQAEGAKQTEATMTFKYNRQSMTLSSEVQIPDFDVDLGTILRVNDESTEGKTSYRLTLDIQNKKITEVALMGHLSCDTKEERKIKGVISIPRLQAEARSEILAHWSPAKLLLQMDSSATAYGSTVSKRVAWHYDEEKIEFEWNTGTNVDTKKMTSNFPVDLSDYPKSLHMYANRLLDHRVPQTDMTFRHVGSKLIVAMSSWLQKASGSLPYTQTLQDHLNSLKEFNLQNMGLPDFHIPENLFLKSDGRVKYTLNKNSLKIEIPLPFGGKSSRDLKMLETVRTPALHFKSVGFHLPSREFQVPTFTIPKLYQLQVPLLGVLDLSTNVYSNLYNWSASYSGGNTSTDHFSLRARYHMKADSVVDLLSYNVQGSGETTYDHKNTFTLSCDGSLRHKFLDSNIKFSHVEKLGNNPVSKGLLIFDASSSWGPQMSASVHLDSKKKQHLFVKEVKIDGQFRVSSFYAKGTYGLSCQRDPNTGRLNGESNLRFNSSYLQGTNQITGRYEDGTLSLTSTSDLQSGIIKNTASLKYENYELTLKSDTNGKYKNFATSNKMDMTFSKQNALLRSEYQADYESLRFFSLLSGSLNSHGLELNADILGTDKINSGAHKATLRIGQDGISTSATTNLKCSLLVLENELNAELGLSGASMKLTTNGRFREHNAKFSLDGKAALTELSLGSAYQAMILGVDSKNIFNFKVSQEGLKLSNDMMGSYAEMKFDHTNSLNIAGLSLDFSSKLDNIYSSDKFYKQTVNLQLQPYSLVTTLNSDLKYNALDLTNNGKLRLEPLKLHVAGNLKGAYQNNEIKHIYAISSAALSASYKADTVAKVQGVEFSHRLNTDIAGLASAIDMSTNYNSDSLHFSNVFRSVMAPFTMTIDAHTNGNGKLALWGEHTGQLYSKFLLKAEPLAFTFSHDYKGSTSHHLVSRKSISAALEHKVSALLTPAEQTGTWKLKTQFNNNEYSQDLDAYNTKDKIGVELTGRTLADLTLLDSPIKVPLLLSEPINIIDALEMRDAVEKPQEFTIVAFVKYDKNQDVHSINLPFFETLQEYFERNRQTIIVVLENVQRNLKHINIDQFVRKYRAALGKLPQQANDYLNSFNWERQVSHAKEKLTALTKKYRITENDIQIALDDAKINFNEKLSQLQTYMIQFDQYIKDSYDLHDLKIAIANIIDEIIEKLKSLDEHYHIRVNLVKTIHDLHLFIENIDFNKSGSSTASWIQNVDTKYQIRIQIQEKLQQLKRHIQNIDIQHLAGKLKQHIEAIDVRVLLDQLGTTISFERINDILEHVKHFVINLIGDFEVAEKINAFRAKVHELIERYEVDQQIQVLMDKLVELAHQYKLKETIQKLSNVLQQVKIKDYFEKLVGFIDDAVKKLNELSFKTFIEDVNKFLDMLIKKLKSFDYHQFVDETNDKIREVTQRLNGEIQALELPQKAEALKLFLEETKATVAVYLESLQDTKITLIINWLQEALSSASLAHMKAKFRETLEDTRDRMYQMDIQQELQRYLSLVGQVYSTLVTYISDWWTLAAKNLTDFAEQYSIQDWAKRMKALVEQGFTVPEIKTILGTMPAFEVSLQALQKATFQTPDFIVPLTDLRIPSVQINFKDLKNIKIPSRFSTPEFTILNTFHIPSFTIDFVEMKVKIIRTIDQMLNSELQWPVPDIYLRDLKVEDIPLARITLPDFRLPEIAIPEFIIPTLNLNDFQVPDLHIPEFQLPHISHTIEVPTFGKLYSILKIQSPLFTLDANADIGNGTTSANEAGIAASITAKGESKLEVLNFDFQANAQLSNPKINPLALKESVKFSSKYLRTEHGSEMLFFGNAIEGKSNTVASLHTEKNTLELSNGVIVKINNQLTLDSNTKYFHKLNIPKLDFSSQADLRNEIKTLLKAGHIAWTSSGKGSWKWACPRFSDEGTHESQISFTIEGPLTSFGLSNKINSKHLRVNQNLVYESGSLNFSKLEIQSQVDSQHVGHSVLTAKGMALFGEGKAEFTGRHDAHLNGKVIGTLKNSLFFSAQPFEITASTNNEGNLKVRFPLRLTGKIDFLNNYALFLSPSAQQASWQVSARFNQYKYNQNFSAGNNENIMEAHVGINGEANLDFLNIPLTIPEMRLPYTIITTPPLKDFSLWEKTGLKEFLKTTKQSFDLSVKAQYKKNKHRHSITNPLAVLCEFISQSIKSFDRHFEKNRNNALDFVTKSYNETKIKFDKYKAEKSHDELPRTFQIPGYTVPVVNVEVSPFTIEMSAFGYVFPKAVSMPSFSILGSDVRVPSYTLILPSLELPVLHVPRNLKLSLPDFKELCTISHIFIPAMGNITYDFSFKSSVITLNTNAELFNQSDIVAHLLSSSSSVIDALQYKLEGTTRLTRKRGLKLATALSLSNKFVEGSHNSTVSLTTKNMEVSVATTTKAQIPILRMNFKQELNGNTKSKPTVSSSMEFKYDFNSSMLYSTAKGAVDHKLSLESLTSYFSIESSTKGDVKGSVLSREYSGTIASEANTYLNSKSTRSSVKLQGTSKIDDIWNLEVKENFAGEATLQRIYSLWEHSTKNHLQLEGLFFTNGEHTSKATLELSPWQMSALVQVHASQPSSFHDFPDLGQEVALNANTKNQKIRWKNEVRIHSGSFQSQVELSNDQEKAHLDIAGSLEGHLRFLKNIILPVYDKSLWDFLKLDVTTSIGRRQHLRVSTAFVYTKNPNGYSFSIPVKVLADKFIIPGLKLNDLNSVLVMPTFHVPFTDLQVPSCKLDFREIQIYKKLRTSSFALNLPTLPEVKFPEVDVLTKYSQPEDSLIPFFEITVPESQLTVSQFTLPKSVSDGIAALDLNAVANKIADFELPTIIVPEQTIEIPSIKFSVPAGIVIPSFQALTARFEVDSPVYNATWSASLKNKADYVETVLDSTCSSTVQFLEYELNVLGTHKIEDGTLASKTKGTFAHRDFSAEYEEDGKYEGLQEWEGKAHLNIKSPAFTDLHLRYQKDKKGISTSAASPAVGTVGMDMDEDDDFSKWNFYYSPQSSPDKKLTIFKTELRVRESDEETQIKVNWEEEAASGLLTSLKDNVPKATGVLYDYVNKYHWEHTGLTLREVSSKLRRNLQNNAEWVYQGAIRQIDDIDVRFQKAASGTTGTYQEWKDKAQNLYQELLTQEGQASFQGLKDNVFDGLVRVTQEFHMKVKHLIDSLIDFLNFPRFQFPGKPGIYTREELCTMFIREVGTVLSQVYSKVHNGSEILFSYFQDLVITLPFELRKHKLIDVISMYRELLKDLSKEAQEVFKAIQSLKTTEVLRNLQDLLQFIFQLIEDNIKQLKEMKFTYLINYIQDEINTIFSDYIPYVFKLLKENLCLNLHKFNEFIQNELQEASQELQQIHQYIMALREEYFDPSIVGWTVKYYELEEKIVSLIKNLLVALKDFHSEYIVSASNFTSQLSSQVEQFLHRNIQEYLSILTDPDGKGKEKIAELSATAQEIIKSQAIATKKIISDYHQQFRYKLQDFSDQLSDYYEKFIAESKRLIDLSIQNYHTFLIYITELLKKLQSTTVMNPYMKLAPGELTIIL

B1: sDSS1 protein: sDSS1 protein produced by the company itself, purity more than 95%; sequence of human sDSS1 protein is SEQ ID NO:1 (protein, listed as Homo sapiens)
chain: MSEKKQPVDLGLLEEDDEFEEFPAEDWAGLDEDEDAHVWEDNWDDDNVEDDFSNQLRATVLLMILVCETPYGCYVLHQKGRMCSAFLCC
On to B1, for which the “Interaction with LDL (complex on SDS-PAGE gel)” value in the series with LDL (phosphate buffer pH 7.2, 37° C.) is recorded as “interacted with the sDSS1 protein; also recorded: resulted in interactions”; in the series on LDL (sodium acetate/acetic acid buffer pH 4.5, 37° C.), “interacted with the sDSS1 protein; also recorded: resulted in interactions”. In series [1], the Animal toxic reaction result was “without causing obvious animal toxic reaction”. The results for the “Plasma LDL level vs control group” value in the series on ApoE−/− mice (sDSS1 10 mg/kg (10 mpk) intraperitoneal once a day) and in the series with ApoE−/− mice (sDSS1 30 mg/kg (30 mpk) intraperitoneal once a day) were “no significant difference; also recorded: did not cause significant changes” and “did not cause significant changes”, respectively. Further, the “Plasma oxLDL/LDL ratio vs control group” value with ApoE−/− mice (sDSS1 10 mg/kg intraperitoneal once a day) and in the series on ApoE−/− mice (sDSS1 high dose (30 mpk) intraperitoneal once a day) was “significantly lower” in each case. In the series on ApoE−/− mice (sDSS1 30 mg/kg (30 mpk, high dose) intraperitoneal once a day), the “Plasma oxLDL level vs control group” value is on record as “significantly reduced”. Further, the “Interaction with oxLDL (complex on SDS-PAGE gel)” value with oxLDL (phosphate buffer pH 7.2) is listed as “interacted with the sDSS1 protein; also recorded: resulted in interactions”; in the series with oxLDL (sodium acetate/acetic acid buffer pH 4.5, 37° C., 12 h), “interacted with the sDSS1 protein; also recorded: resulted in interactions”. In addition, the “Macrophages having fluorescence (flow cytometry)” value in series [2] (2 μg/ml sDSS1 protein) and in series [2] (10 μg/ml sDSS1 protein) was “not detected; also recorded: basically didn't appear” in each case. Also, the “Fluorescence in macrophages (fluorescence microscope)” value in series [2] (sDSS1 protein added (2 and 10 μg/ml)) is “no obvious fluorescence was observed in the cells, or the fluorescence was very weak; also recorded: basically no obvious fluorescent signals were observed”.
